The record followed here is the DeepSol protein solubility set.

The data set in a line: soluble on expression in E. coli; label from the status in PepcDB or PDB records.
“MDTPRPQLLDFQFHQNNDSFTLHFQQRLILTHNKDNPCLWIGSGIADIDMFRGNFSIKDKLQEKIALTDAIVSQSPDGWLIHFSRGSDISATLNISADDQGRLLLELQNDNLNHNRIWLRLAAQPEDHIYGCGEQFSYFDLRGKPFPLWTSEQGVGRNKQTYVTWQADCKENAGGDYYWTFFPQPTFVSTQKYYCHVDNSCYMNFDFSAPEYHELALWEDKATLRFECADTYISLLEKLTALLGRQPELPDWIYDGVTLGIQGGTEVCQKKLDTMRNAGVKVNGIWAQDWSGIRITSFGKRVMWNWKWNSENYPQLDSRIKQWYQEGVQFLAYINPYVASDKDLCEEAAQHGYLAKDASGGDYLVEFGEFYGGVVDLTNPEAYAWFKEVIKKNMIELGCGGWMADFGEYLPTDTYLHNGVSAEIMHNAWPALWAKCNYEALEETGKLGEILFFMRAGSTGSQKYSTMMWAGDQNVDWSLDDGLASVVPAALSLAMTGHGLHHSDIGGYTTLFEMKRSKELLLRWCDFSAFTPMMRTHEGNRPGDNWQFDGDAETIAHFARMTTVFTTLKPYLKEAVALNAKSGLPVMRPLFLHYEDDAHTYSLKYQYLLGRDILVAPVHEEGRSDWTLYLPEDNWVHAWTGEAFRGGEVTVNAPIGKPPVFYRADSEWAALFASLNSI”: the “soluble on expression in E. coli” value is “not soluble”.

As to “MDIFSGLFTQVNNNNEEDLRVELQNMKPGEGVIRAEVGPSGVATFKKYFLQDGKLQFEIVKHPI”, the “soluble on expression in E. coli” value is “not soluble”.

For “SNAMKTEKDKMLAGEMYIADDEELVADRVEAKRLTRLYNEAVETGDERRFTLLNQLLGSSADGKAQINPDFRCDYGYNIHVGKSFFANFNCVILDVCEVRIGDHCMFAPGVHIYTATHPLHPVERNSGKEYGKPVKIGNNVWVGGGAIINPGVSIGDNAVIASGAVVTKDVPNNVVVGGNPAKVIKTIEE”, the “soluble on expression in E. coli” value is “soluble”.

As to “SMCPGCGCGRIIHLGLGTEQVEAYVREHFPHARVDRMDRDTTARRGGHARILRKVAERQTDILIGTQMVAKGHDFPGITLVGILSVESTLNIPDYRSAERTFQLVTQLIGRAGRGDDPGRVLIQSLNP”, the “soluble on expression in E. coli” value is listed as “not soluble”.

As to “MAYGVMSWWDYGHYIETLGHRMPNANPFQAGIGGRRGSINETNVPGAAPFLTAQSEEEATEVLESIHPDPEKSGARYIMSDERMAVDIFMAMPEWTLDTEGYMQPYWTGDGYQYLPSKRYFDSMESRLHFLDGNGLKQYRLVYETWAYQTQEAGYKQVYNFLYGSSIPEVDSGYVKIFEYVKGAKITGTVSPNETVNINTTILTGQGRTFEYSQLEHHHHHH”, the “soluble on expression in E. coli” value is listed as “not soluble”.

Consider “GIDPFTHMATFISVQLKKTSEVDLAKPLVKFIQQTYPSGGEEQAQYCRAAEELSKLRRAAVGRPLDKHEGALETLLRYYDQICSIEPKFPFSENQICLTFTWKDAFDKGSLFGGSVKLALASLGYEKSCVLFNCAALASQIAAEQNLDNDEGLKIAAKHYQFASGAFLHIKETVLSALSREPTVDISPDTVGTLSLIMLAQAQEVFFLKATRDKMKDAIIAKLANQAADYFGDAFKQCQYKDTLPKEVFPVLAAKHCIMQANAEYHQSILAKQQYYFGEEIARLQHAAELIKTVASRYDEYVNVKDFSDKINRALAAAKKDNDFIYHDRVPDLKDLDPIGKATLVKSTPVNVPISQKFTDLFEKMVPVSVQQSLAAYNQRKADLVNRSIAQMREATTLANGVLASLNLPAAIEDVSGDTVPQSILTKSRSVIEQGGIQTVDQLIKELPELLQRNREILDESLRLLDEEEATDNDLRAKFKERWQRTPSNELYKPLRAEGTNFRTVLDKAVQADGQVKECYQSHRDTIVLLCKPEPELNAAIPSANPAKTMQGSEVVNVLKSLLSNLDEVKKEREGLENDLKSVNFDMTSKFLTALAQDGVINEEALSVTELDRVYGGLTTKVQESLKKQEGLLKNIQVSHQEFSKMKQSNNEANLREEVLKNLATAYDNFVELVANLKEGTKFYNELTEILVRFQNKCSDIVFAR”, for which the “soluble on expression in E. coli” value was “soluble”.

As for “MNTEIEIIATDKVSNQAAMRSVLVMEQWGNGETYSEERWVERGRQAVRQTMEGMFELGRALIILKEHTEHGRFMEIVKSQFGLGIAETSRLMSATRRFATPQMQKAAPKLMDLGKSKLLELLVEEDVTLVGLAEGEEVNGMTFDDVDRMTVRELRVALRESRENLAAKDEVMKTKTAKIDELAEKLAKKQTVVREPKAEDVGSELAMQLTSLEVGIRSQVSRLKDLFDQLNAHSEAHGISHQAKMVGTLNQIILDCEQLRESYALPTEAPTDNVPEWLGGETGEGDESGND”, the “soluble on expression in E. coli” value is listed as “not soluble”.
